Data published in doi:10.1101/2025.03.24.644895.

Biological target: Avi-tagged human eIF4A1 full length (human) (UniProt P60842)
Assay: SPR

Avi-tagged human eIF4A1 full length (human), sequence (P60842 whole entry): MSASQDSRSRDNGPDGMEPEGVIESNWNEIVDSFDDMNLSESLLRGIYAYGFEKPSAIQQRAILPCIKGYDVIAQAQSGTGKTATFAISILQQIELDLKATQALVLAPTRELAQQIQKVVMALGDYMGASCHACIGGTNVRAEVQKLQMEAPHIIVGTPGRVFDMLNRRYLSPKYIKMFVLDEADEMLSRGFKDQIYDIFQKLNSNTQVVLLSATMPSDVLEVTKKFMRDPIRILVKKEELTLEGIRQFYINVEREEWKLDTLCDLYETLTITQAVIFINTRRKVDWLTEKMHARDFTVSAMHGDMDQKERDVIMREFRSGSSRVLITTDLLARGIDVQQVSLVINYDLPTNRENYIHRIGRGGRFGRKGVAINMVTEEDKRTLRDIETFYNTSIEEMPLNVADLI

fold increase in binding affinity with hippuristanol against no compound: 5 fold
Substance: eIF4G-MIF (middle domain of eIF4G, residues 712-1011) (domain or fragment)
